Data: patent US20140248641A1, “CLONED GLUCAGON-LIKE PEPTIDE-2 RECEPTORS” (NPS PHARMACEUTICALS, INC., priority 1997, published 2014)
Changes are numbered by the printed parent chain.

Assays:
Format in all cases: cell-based
[1] = tested on: HHT13 clones (human GLP-2R cDNA with frame-shift mutation); assay: cAMP functional assay in COS cells transfected with HHT13 clones; conditions: COS cells transfected with pHHT13-1, pHHT13-2, pHHT13-3
Method: Transfections were carried out with each clone, using the rat GLP-2R, 587 clone as a positive control for cAMP response to GLP-2 peptide. Methods for transfection, cell culture and cAMP assay were identical to those described for the functional assay of rat, 587 clone.

[2] = target: T1, Rat clone 587 GLP-2 receptor (Rattus norvegicus, UniProt Q9Z0W0); assay: cAMP functional assay in transfected COS-1 cells, rat GLP-2 receptor
T1 construct: one which primed starting 4 bp upstream of the initiation codon and another which primed starting 8 bp downstream of the stop codon; expressed in transfected cells; host or cells: COS-1
T1 sequence (Q9Z0W0 1-550): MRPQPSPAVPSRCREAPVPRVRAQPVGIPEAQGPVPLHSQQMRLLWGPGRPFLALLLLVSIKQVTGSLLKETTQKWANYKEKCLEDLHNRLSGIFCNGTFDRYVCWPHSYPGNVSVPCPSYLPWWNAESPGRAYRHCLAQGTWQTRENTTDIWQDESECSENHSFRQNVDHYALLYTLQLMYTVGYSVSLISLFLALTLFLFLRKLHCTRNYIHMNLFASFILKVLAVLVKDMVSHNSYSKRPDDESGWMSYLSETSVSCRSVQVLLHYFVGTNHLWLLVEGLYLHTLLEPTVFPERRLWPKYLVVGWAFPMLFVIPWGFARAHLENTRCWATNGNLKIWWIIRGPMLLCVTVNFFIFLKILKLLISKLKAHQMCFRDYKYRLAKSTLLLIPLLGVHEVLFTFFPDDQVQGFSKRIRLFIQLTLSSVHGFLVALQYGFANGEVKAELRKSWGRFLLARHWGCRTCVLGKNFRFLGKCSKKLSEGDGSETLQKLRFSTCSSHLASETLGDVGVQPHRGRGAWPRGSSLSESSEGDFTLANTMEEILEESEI
Method: (§1) Cos-1 cells were transfected as described in Analytical Biochemistry, 218:460-463(1994) with Rat clone 587 GLP-2 receptor, cloned human GLP-2 receptor (pC3/HuGL2R-2), or cloned residue 85 variant human GLP-2 receptor (pC3.1/HuGL2R-MH4), pcDNA3. Rat GLP-1 (7-36) amide was used as a control peptide. Solutions used were as follows:
(§2) RSC in RPMI 1640 (49 ml RPMI+1 ml FCS+5)0 ulchloroquine, 100 mM); DEAE/RSC Solution: 18.4 ml RSC+1.6 ml DEAE/Dextran (10 mg/ml).
(§3) The assay procedure entailed the following: […]
The functional assay was performed as follows: cAMP content for each extract was determined in duplicate by EIA (Enzyme ImmunoAssay) using the Amersham Biotrak cAMP EIA Kit (Amersham 225).

[3] = target: T2, cloned residue 85 variant human GLP-2 receptor (Homo sapiens, UniProt O95838, R85E); assay: cAMP functional assay in transfected COS-1 cells, residue 85 variant human GLP-2 receptor; conditions: hybrid clone pc3.1/HuGL2R/MH6 with 2 bp GA replacement (Glu85 variant)
T2 construct: Myc-His (from vector pcDNA3.1(-)/Myc-His A) (C); expressed in transfected cells; host or cells: COS-1
T2 sequence (O95838 1-553 R85E): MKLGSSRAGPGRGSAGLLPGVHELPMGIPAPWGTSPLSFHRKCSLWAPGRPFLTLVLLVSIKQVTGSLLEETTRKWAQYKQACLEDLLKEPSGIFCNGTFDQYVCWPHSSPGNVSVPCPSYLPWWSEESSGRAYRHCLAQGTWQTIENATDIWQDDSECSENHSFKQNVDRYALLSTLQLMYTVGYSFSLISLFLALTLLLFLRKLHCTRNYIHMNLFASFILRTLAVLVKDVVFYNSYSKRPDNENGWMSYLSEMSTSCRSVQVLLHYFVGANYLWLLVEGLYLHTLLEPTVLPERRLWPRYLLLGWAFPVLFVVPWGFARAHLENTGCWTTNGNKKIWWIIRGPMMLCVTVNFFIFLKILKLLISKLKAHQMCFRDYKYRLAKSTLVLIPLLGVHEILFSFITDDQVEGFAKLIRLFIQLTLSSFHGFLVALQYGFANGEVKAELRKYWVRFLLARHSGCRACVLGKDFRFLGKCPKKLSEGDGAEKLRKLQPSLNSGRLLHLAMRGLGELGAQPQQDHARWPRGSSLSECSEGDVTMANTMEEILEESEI
Method: Rat GLP-1 (7-36) amide was used as a control peptide. Solutions used were as follows:
as §2
The assay procedure entailed the following:
a) […] of either rat clone 587 GLP-2 receptor, or cloned human GLP-2 receptor, or cloned residue 85 variant human GLP-2 receptor was added (as plasmid pcDNA3) to a 50 ml tube containing six mls. of RSC and incubated at 37° C. b) Six ml of DEAE/RSC solution was added to each tube and incubated at 37° C. for 2 min. c) 1.5 ml of COS-1 cell suspension (5.5 millions cells) was added to each tube and incubated for 1 hr 45 min at 37° C. d) Following incubation, the sample was spun for 5 minutes at low speed, washed with DMEM/F12+10% FBS twice, and the pellet resuspended in 12.5 ml DMEM/F12+10% FBS media. e) One ml of cell suspension (step d) was added to each well of 6 well plates coated with poly-D-lysine (from Collaborative Biomedical), containing 3 ml of media (0.45 million cells/well). f) Plates were incubated at 37° C. for 3 days.
Media was prepared fresh on day of use. […]
(§4) The functional assay was performed as follows: cAMP content for each extract was determined in duplicate by EIA (Enzyme ImmunoAssay) using the Amersham Biotrak cAMP EIA Kit (Amersham 225). […]

[4] = target: T3, cloned human GLP-2 receptor (pC3/HuGL2R-2) (Homo sapiens, UniProt O95838); assay: cAMP functional assay in transfected COS-1 cells, human GLP-2 receptor; conditions: FIG. 8
T3 construct: expressed in transfected cells; host or cells: COS-1
T3 sequence (O95838 1-553): T2 sequence (O95838 1-553 R85E) with E85R
Method: as §1, §2, §3, §4

cAMP response to GLP-2 peptide ([2]; COS cells transfected with rat GLP-2R 587 clone (positive control), cAMP EIA): good cAMP response
selectivity of receptor for GLP-2 over GLP-1 (cAMP) ([2]; cloned rat receptor, peptides at 1, 3, 10 and 30 nM, 30 min, FIG. 3): GLP-2 selectivity
cAMP response to GLP-2 treatment [3]: cAMP response
cAMP production in response to GLP-2 treatment ([4]; COS cells transfected with pc3/HuGL2R-2): cAMP production
selectivity of receptor for GLP-2 over GLP-1 (cAMP) ([4]; cloned human receptor, peptides at 1, 3, 10 and 30 nM, 30 min): GLP-2 selectivity
Substance: Glucagon-like peptide-2 [GLP-2]
cAMP response to GLP-2 peptide [1]: none of the HHT13 clones gave any cAMP response
